In patent US20070128190A1:

Legend:
[1] = target: GST-rat α2 I domain fusion protein (rat); assay: SPR (Biacore 2000), antibody captured, GST-α2 I domain in solution
[2] = target: GST-rat α2 I domain fusion protein (rat); assay: Eu-TMC-2206 on immobilized GST-α2 I domain at 37 °C, Scatchard
[3] = target: human platelet α2β1 integrin (immobilized on microtiter plates) (human) (UniProt P17301); assay: competition with Eu-TMC-2206 on human platelet α2β1-coated plate
Sequence of human platelet α2β1 integrin (immobilized on microtiter plates) (human) (P17301 30-1181 E534K limits assumed, chain 1 of 2): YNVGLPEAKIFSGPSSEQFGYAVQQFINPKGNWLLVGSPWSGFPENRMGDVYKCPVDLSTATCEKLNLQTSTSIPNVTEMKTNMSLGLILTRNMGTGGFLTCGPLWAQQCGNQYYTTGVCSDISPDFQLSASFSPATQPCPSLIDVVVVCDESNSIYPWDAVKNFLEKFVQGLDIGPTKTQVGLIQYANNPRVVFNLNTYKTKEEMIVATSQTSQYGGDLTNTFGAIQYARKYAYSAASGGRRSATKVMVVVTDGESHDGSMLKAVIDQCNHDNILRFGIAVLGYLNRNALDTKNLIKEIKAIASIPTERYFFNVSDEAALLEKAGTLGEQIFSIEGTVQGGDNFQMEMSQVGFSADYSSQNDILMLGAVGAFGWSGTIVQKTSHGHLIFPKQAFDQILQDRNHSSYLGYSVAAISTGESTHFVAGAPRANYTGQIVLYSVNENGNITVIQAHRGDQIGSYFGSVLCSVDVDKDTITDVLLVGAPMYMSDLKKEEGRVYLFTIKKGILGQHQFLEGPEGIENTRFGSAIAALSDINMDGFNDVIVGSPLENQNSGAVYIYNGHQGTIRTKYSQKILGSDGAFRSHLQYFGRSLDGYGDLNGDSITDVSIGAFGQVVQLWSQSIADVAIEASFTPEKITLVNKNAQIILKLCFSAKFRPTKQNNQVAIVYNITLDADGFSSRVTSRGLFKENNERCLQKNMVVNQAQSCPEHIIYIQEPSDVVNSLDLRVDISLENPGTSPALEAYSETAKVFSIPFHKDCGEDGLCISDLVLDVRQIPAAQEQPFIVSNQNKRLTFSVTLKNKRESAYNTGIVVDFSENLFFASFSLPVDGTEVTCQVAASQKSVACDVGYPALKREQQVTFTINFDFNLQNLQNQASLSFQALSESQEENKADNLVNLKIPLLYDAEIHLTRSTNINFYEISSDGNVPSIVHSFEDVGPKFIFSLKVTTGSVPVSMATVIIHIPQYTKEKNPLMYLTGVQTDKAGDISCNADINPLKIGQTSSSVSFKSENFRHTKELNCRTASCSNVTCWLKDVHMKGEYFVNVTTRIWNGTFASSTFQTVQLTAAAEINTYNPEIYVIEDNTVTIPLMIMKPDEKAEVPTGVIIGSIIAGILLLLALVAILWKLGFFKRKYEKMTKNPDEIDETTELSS
Sequence of human platelet α2β1 integrin (immobilized on microtiter plates) (human) (chain, as listed by the source limits assumed, chain 2 of 2): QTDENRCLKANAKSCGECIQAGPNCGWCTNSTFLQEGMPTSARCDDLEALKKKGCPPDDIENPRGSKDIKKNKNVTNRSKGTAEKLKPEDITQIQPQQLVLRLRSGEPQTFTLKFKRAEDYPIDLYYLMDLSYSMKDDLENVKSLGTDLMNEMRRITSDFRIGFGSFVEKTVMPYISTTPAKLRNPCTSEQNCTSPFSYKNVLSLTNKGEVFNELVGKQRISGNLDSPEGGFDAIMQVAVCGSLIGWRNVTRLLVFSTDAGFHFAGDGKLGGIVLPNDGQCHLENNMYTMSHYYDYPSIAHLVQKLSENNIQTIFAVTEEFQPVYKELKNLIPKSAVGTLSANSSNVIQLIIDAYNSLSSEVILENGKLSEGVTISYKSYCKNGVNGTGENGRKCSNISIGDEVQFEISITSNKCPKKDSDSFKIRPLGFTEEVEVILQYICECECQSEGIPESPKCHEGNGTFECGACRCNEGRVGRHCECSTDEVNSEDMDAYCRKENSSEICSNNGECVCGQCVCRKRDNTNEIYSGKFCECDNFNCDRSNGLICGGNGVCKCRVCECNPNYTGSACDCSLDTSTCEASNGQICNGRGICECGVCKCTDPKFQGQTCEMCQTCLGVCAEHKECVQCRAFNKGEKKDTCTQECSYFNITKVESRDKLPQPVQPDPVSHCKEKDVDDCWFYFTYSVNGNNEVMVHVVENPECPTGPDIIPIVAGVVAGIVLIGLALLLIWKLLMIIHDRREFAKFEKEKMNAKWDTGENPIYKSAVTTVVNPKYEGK

Kd [1] | koff [1] | kon [1] | Kd [2] | fold decrease compared to human α2 I domain [2] | fold shift in potency relative to the mouse-human chimeric TMC-2206 antibody [3] | Binder
2 nM | 0.00082 s⁻¹ | 420000 M⁻¹ s⁻¹ | 1.3 nM | 6 fold |  | TMC-2206 (antibody, mouse IgG1, V domains shown) VH: QVQLKESGPGLVAPSQSLSITCTVSGFSLTNYGIHWVRQPPGKGLEWLGVIWARGFTNYNSALMSRLIITKDNSQSQVFLKMNSLQPDDSATYFCARANDGVYYAMDYWGQGTSVTVSS VL: QFVLTQSPAFLSASPGEKVTMTCSANSSVNYIHWYQQKSGTSPKKWIYDTSKLASGVPVRFSGSGSGTSYSLTISSMETEDAATYYCQQWTTNPLTFGAGTRVELK
 |  |  |  |  | > 1600 fold | TMC-2206 VH D100A variant antibody (antibody, part only; not given: Light chain, constant regions, V domains shown, part only) VH: QVQLKESGPGLVAPSQSLSITCTVSGFSLTNYGIHWVRQPPGKGLEWLGVIWARGFTNYNSALMSRLIITKDNSQSQVFLKMNSLQPDDSATYFCARANAGVYYAMDYWGQGTSVTVSS
